Reference: patent publication US20230103885A1 (CRISPR THERAPEUTICS, published 2023)

What was measured:
[1] = target: T1, Recombinant FMC63-scFv protein; assay: indirect ELISA, purified native antibody at 15.62 ng/ml (1:64,000)
T1 construct: also called His-tagged single-chain variable fragment of mouse anti-human CD19 antibody FMC63; coating antigen A
Protocol: (§1) In the first (native) method, hybridoma cells (29E4B5) were cultured in low IgG culture medium in a roller bottle for 10 days. The supernatants were collected and protein A purified to obtain purified antibodies. The purified antibodies were analyzed for the ability to bind the FMC63-scFv protein and anti-CD19 CAR T cells using ELISA (Table 8).
(§2) A: Recombinant FMC63-scFv protein B: […] (FMC63-scFv linker peptide)(SEQ ID NO: 6) C: His-tagged protein D: Total human IgG The titer was the highest dilution where the Signal/Blank (S/B) ratio was ≥2.1. OD₄₅₀ for Blank was the average of two technical replicates. The starting concentration was 1 mg/ml, and the corresponding dilution ratio was calculated based on the actual concentration.

[2] = target: T2, Total human IgG (human); assay: as above
T2 construct: also called coating antigen D
Protocol: as §1, §2

[3] = target: T3, FMC63-scFv linker peptide; assay: as above
T3 construct: also called coating antigen B
T3 peptide: TGSTSGSGKPGSGEGSTKG
Protocol: as §1, §2

[4] = target: T4, irrelevant His-tagged protein; assay: as above
T4 construct: also called coating antigen C
Protocol: as §1, §2

[5] = target: T1, Recombinant FMC63-scFv protein; assay: indirect ELISA, purified native antibody at 500 ng/ml (1:2,000)
Protocol: as §1, §2

[6] = target: T2, Total human IgG; assay: as above
Protocol: as §1, §2

[7] = target: T3, FMC63-scFv linker peptide; assay: as above
Protocol: as §1, §2

[8] = target: T4, irrelevant His-tagged protein; assay: as above
Protocol: as §1, §2

[9] = target: T5, anti-CD19 CAR comprising the anti-CD19 scFv of SEQ ID NO:1; assay: flow cytometry on anti-CD19 CAR T cells, dilution 1:800
T5 construct: also called anti-CD19 chimeric antigen receptor; anti-CD19 CAR T cells
Excerpt: (§3) The 29E4B5 antibodies produced using the first or the second method were compared with a reference anti-FMC63-scFv antibody (rec_mab3) for the ability to bind to the anti-CD19 CAR T cells using flow cytometry. Both methods produced 29E4B5 antibodies with higher affinity to the anti-CD19 cells than rec_mab3, showing higher CAR positive percentage even at 1:6,400 dilutions (Table 9).

[10] = target: T1, Recombinant FMC63-scFv protein; assay: indirect ELISA, subclone culture supernatant on coated antigen
[11] = target: T2, Total human IgG; assay: as above
[12] = target: T3, FMC63-scFv linker peptide; assay: as above
[13] = target: T4, irrelevant His-tagged protein; assay: as above
[14] = target: T5, anti-CD19 CAR comprising the anti-CD19 …; assay: flow cytometry on anti-CD19 CAR T cells, dilution 1:400
Excerpt: as §3

[15] = target: T5, anti-CD19 CAR comprising the anti-CD19 …; assay: flow cytometry on anti-CD19 CAR T cells, dilution 1:3200
Excerpt: as §3

[16] = target: T5, anti-CD19 CAR comprising the anti-CD19 …; assay: flow cytometry on anti-CD19 CAR T cells, dilution 1:200
Excerpt: as §3

[17] = target: T5, anti-CD19 CAR comprising the anti-CD19 …; assay: flow cytometry on anti-CD19 CAR T cells, dilution 1:50
Excerpt: as §3

[18] = target: T1, Recombinant FMC63-scFv protein; assay: indirect ELISA, purified native antibody at 250 ng/ml (1:4,000)
Protocol: as §1, §2

[19] = target: T2, Total human IgG; assay: as above
Protocol: as §1, §2

[20] = target: T3, FMC63-scFv linker peptide; assay: as above
Protocol: as §1, §2

[21] = target: T4, irrelevant His-tagged protein; assay: as above
Protocol: as §1, §2

[22] = target: T1, Recombinant FMC63-scFv protein; assay: indirect ELISA, purified native antibody; highest dilution with Signal/Blank >=2.1
Protocol: as §1, §2

[23] = target: T2, Total human IgG; assay: as above
Protocol: as §1, §2

[24] = target: T3, FMC63-scFv linker peptide; assay: as above
Protocol: as §1, §2

[25] = target: T4, irrelevant His-tagged protein; assay: as above
Protocol: as §1, §2

[26] = target: T5, anti-CD19 CAR comprising the anti-CD19 …; assay: flow cytometry on anti-CD19 CAR T cells, dilution 1:100
Excerpt: as §3

[27] = target: T1, Recombinant FMC63-scFv protein; assay: indirect ELISA, purified native antibody at 1,000 ng/ml (1:1,000)
Protocol: as §1, §2

[28] = target: T2, Total human IgG; assay: as above
Protocol: as §1, §2

[29] = target: T3, FMC63-scFv linker peptide; assay: as above
Protocol: as §1, §2

[30] = target: T4, irrelevant His-tagged protein; assay: as above
Protocol: as §1, §2

[31] = target: T1, Recombinant FMC63-scFv protein; assay: indirect ELISA, purified native antibody at 7.81 ng/ml (1:128,000)
Protocol: as §1, §2

[32] = target: T2, Total human IgG; assay: as above
Protocol: as §1, §2

[33] = target: T3, FMC63-scFv linker peptide; assay: as above
Protocol: as §1, §2

[34] = target: T4, irrelevant His-tagged protein; assay: as above
Protocol: as §1, §2

[35] = target: T1, Recombinant FMC63-scFv protein; assay: indirect ELISA, purified native antibody at 1.95 ng/ml (1:512,000)
Protocol: as §1, §2

[36] = target: T2, Total human IgG; assay: as above
Protocol: as §1, §2

[37] = target: T3, FMC63-scFv linker peptide; assay: as above
Protocol: as §1, §2

[38] = target: T4, irrelevant His-tagged protein; assay: as above
Protocol: as §1, §2

[39] = target: T5, anti-CD19 CAR comprising the anti-CD19 …; assay: flow cytometry on anti-CD19 CAR T cells, dilution 1:1600
Excerpt: as §3

[40] = target: T1, Recombinant FMC63-scFv protein; assay: indirect ELISA, purified native antibody at 125 ng/ml (1:8,000)
Protocol: as §1, §2

[41] = target: T2, Total human IgG; assay: as above
Protocol: as §1, §2

[42] = target: T3, FMC63-scFv linker peptide; assay: as above
Protocol: as §1, §2

[43] = target: T4, irrelevant His-tagged protein; assay: as above
Protocol: as §1, §2

[44] = target: T1, Recombinant FMC63-scFv protein; assay: indirect ELISA, purified native antibody at 3.90 ng/ml (1:256,000)
Protocol: as §1, §2

[45] = target: T2, Total human IgG; assay: as above
Protocol: as §1, §2

[46] = target: T3, FMC63-scFv linker peptide; assay: as above
Protocol: as §1, §2

[47] = target: T4, irrelevant His-tagged protein; assay: as above
Protocol: as §1, §2

[48] = target: T5, anti-CD19 CAR comprising the anti-CD19 …; assay: flow cytometry on anti-CD19 CAR T cells, dilution 1:6400
Excerpt: as §3

[49] = target: T1, Recombinant FMC63-scFv protein; assay: indirect ELISA, purified native antibody at 31.25 ng/ml (1:32,000)
Protocol: as §1, §2

[50] = target: T2, Total human IgG; assay: as above
Protocol: as §1, §2

[51] = target: T3, FMC63-scFv linker peptide; assay: as above
Protocol: as §1, §2

[52] = target: T4, irrelevant His-tagged protein; assay: as above
Protocol: as §1, §2

[53] = target: T1, Recombinant FMC63-scFv protein; assay: indirect ELISA, purified native antibody at 62.50 ng/ml (1:16,000)
Protocol: as §1, §2

[54] = target: T2, Total human IgG; assay: as above
Protocol: as §1, §2

[55] = target: T3, FMC63-scFv linker peptide; assay: as above
Protocol: as §1, §2

[56] = target: T4, irrelevant His-tagged protein; assay: as above
Protocol: as §1, §2

T1 sequence (scFv, as listed by the source): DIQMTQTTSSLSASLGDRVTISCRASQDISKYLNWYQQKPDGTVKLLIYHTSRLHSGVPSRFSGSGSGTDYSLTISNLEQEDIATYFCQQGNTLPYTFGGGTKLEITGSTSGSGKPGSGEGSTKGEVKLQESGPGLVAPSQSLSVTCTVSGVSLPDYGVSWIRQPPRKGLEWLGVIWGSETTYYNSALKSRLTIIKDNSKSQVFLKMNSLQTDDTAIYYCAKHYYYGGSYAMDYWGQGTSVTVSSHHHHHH

B1: mouse anti-FMC63-scFv monoclonal antibody 29E4B5 (antibody, mouse IgG1, kappa, V domains shown)
VH: EVKLLQSGGGLVQPGGSLKLSCAASGIDFSRYWMSWVRRAPGKGLEWIGEINLDSSTKNYAPSLKDKFIISRDNAKNTLYLQMSKVRSEDTALYYCARNYVGMDYWGQGTSVTVSS
VL: DIVLTQSPASLAVSLGQRATISCRASKSVSSSDYTYMHWYQQKPGQPPKLLIYLASNLESGVPARFSGSGSGTDFTLNIHPVEEEDAATYYCQHSRELPPTFGGGTKLEIKR
notes: Hybridoma-derived antibody (culture supernatant, microscale purified, or protein A purified native lot), isotype IgG1, kappa; These are left out by the residue ranges; also called 29E4B5-1; 29E4B5-1 (Native)
In the case of B1, the OD450 [1] is reported as 0.983 OD450, the OD450 [2] is reported as 0.067 OD450 and the OD450 [3] is reported as 0.067 OD450. It also gave an OD450 [4] of 0.088 OD450, an OD450 [5] of 1.89 OD450 and an OD450 [6] of 0.08 OD450. For the same binder, the OD450 [7] was 0.059 OD450, the OD450 [8] was 0.059 OD450 and the “% CAR+” value [9] was 67.6%. The OD450 nm [10] was 1.5 OD450, the OD450 nm [11] was 0.178 OD450 and the OD450 nm [12] was 0.087 OD450. The OD450 nm [13] was 0.201 OD450, the “% CAR+” value [14] was 67.6% and the “% CAR+” value [15] was 62.9%. The “% CAR+” value [16] was 67.9%, the “% CAR+” value [17] was 70.1% and the OD450 [18] was 1.85 OD450. It also gave an OD450 [19] of 0.079 OD450, an OD450 [20] of 0.062 OD450 and an OD450 [21] of 0.054 OD450. The Titer [22] was 512000 dilution (1:x), the Titer [23] was < 1000 dilution (1:x) and the Titer [24] was < 1000 dilution (1:x). The Titer [25] was < 1000 dilution (1:x), the “% CAR+” value [26] was 69.2% and the OD450 [27] was 1.88 OD450. It also gave an OD450 [28] of 0.073 OD450, an OD450 [29] of 0.064 OD450 and an OD450 [30] of 0.059 OD450. For the same binder, the OD450 [31] was 0.676 OD450, the OD450 [32] was 0.064 OD450 and the OD450 [33] was 0.076 OD450. The OD450 [34] was 0.06 OD450, the OD450 [35] was 0.245 OD450 and the OD450 [36] was 0.076 OD450. The OD450 [37] was 0.077 OD450, the OD450 [38] was 0.085 OD450 and the “% CAR+” value [39] was 67.9%. It also gave an OD450 [40] of 1.79 OD450, an OD450 [41] of 0.069 OD450 and an OD450 [42] of 0.059 OD450. The OD450 [43] was 0.057 OD450, the OD450 [44] was 0.407 OD450 and the OD450 [45] was 0.073 OD450. For the same binder, the OD450 [46] was 0.068 OD450, the OD450 [47] was 0.084 OD450 and the “% CAR+” value [48] was 60.5%. It also gave an OD450 [49] of 1.32 OD450, an OD450 [50] of 0.076 OD450 and an OD450 [51] of 0.061 OD450. It also gave an OD450 [52] of 0.059 OD450, an OD450 [53] of 1.71 OD450 and an OD450 [54] of 0.071 OD450. For the same binder, the OD450 [55] was 0.075 OD450 and the OD450 [56] was 0.051 OD450.

B2: reference anti-FMC63-scFv antibody (rec_mab3) (antibody, V domains shown)
VH: EVKLVESGGGLVQPGGSLKLSCAASGFDFSRYWMSWVRQAPGKGLEWIGEINLDSSTINYTPSLKDKFIISRDNAKNTLYLQMSKVRSEDTALYYCARRYDAMDYWGQGTSVTVSS
VL: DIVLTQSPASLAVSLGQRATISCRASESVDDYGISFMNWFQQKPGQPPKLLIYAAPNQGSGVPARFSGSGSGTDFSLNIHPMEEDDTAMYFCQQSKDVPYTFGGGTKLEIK
notes: also called control anti-FMC63-scFv antibody
B2 was tested, and the “% CAR+” value [9] was 66.4%, the “% CAR+” value [14] was 68.9% and the “% CAR+” value [15] was 56.6%. For the same binder, the “% CAR+” value [16] was 69.7%, the “% CAR+” value [17] was 69.8% and the “% CAR+” value [26] was 69.4%. The “% CAR+” value [39] was 62.2% and the “% CAR+” value [48] was 49.1%.

B3: 29E4B5-1 (Recombinant) (antibody, V domains shown)
VH: EVKLLQSGGGLVQPGGSLKLSCAASGIDFSRYWMSWVRRAPGKGLEWIGEINLDSSTKNYAPSLKDKFIISRDNAKNTLYLQMSKVRSEDTALYYCARNYVGMDYWGQGTSVTVSS
VL: DIVLTQSPASLAVSLGQRATISCRASKSVSSSDYTYMHWYQQKPGQPPKLLIYLASNLESGVPARFSGSGSGTDFTLNIHPVEEEDAATYYCQHSRELPPTFGGGTKLEIK
notes: also called recombinant 29E4B5 antibody
With B3 the “% CAR+” value [9] was 68%, the “% CAR+” value [14] was 69.1% and the “% CAR+” value [15] was 62.5%. The “% CAR+” value [16] was 68.8%, the “% CAR+” value [17] was 69.6% and the “% CAR+” value [26] was 69.3%. The “% CAR+” value [39] was 65.9% and the “% CAR+” value [48] was 58%.
